The text below walks through data of article PMC8278974.

Assay in all cases: gel electrophoresis; eluent of Ni-charged magnetic beads (0.5 M NaCl, 20 mM HEPES, 500 mM imidazole, 0.5% Genapol X-80, pH 8.0) after heating the lysate at 90 °C for 10 min; 4–20% Mini-PROTEAN TGX Gel, 200 V for 27 min; self-assembly, octamer band
Assay [1] has as its target M2 MspA (Mycobacterium smegmatis porin A mutant M2) (Mycobacterium smegmatis) (UniProt A0QR29).
Assay [2] concerns the target MspA-C (M2 MspA with cysteine at site 91) (Mycobacterium smegmatis).
Assay [3] concerns the target MspA-D (M2 MspA with aspartic acid at site 91) (Mycobacterium smegmatis).
Assay [4] addresses MspA-H (M2 MspA with histidine at site 91) (Mycobacterium smegmatis).
In assay [5] the target is MspA-M (M2 MspA with methionine at site 91) (Mycobacterium smegmatis).

Usually stoichiometry N stands for the number of molecules, sites or subunits per partner or assembly.

In assay [1], “M2 MspA (Mycobacterium smegmatis porin A mutant M2) (from UniProt A0QR29 28-211) (natural protein)” had a stoichiometry N of 8.

On to “MspA-C (M2 MspA with cysteine at site 91) (natural protein)”, for which, in assay [2], the stoichiometry N is 8.

Turning to “MspA-D (M2 MspA with aspartic acid at site 91) (natural protein)”, in assay [3], the stoichiometry N was 8.

Consider “MspA-H (M2 MspA with histidine at site 91) (natural protein)”, for which, in assay [4], the stoichiometry N turned out to be 8.

In assay [5], “MspA-M (M2 MspA with methionine at site 91) (natural protein)” had a stoichiometry N of 8.
